Measured values: publication PMC3795721, “Screening for Protein-DNA Interactions by Automatable DNA-Protein Interaction ELISA”

T1: AtTIFY1 (Arabidopsis thaliana, UniProt Q9LRH6 1-309)
T1 sequence: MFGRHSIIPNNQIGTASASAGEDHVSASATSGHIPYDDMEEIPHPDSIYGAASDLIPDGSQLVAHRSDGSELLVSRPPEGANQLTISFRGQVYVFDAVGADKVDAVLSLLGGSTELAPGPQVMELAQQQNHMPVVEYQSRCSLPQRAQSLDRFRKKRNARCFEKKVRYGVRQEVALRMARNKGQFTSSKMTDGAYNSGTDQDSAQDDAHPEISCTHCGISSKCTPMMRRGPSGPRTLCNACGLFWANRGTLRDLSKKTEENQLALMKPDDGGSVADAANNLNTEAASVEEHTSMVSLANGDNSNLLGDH

T2: AtbZIP63 (Arabidopsis thaliana, UniProt B9DGI8 1-314)
T2 sequence: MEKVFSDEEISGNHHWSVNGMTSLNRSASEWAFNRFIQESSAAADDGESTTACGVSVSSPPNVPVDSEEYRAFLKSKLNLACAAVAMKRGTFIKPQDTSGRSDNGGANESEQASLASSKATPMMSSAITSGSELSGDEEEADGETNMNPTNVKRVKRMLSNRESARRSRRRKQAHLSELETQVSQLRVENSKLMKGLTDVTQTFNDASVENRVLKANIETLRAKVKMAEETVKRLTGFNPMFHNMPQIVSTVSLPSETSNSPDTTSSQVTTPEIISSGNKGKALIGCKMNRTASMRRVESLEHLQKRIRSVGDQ


Key:
[1] = target: T1, AtTIFY1; test: DPI-ELISA; DPI-ELISA, streptavidin 384-well plate, 1-2 pmol biotinylated dsDNA per well, crude native E. coli extract, anti-His detection; buffer as in Brand et al. [46],; high values mean tight binding; conditions: tags: C-terminal His (pET-DEST42); label: 5' biotin on forward strand
[2] = target: T2, AtbZIP63; test: as above; conditions: tags: C-terminal His (pET-DEST42); chain copies: 2; label: 5' biotin on forward strand
[3] = target: WRKY33 cDBD (Arabidopsis thaliana, UniProt Q8S8P5 345-449); test: as above; conditions: tags: C-terminal His (pET-DEST42); label: 5' biotin on forward strand
WRKY33 cDBD, sequence (Q8S8P5 other isoform, or with tags, fused parts or gaps): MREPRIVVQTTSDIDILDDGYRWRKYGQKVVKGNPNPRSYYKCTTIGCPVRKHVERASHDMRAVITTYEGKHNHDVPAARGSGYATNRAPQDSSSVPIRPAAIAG

[4] = target: T1, AtTIFY1; test: DPI-ELISA; highest affinity; DPI-ELISA on streptavidin plates with biotinylated dsDNA (1 pmol in Figure S1, 2 pmol in Figure 1 legend) and crude E. coli extract; anti-His detection; buffer, pH and temperature not given (ref 46); conditions: protein: recombinant; tags: C-terminal His (pET-DEST42); label: 5' biotin on forward strand; blunt

Binder | binding signal [1] | also measured
227 (dsDNA) DNA 1: AAAAAAGGCTCCGGCCCCCAATCGCAAAAA DNA 2: TTTTTGCGATTGGGGGCCGGAGCCTTTTTT | 1.44 relative normalized absorbance | 
202 (dsDNA) DNA 1: AAAAAAGATTGACTCGTCTTACTCGAAAAA DNA 2: TTTTTCGAGTAAGACGAGTCAATCTTTTTT |  | binding signal [2]: 2.68 relative normalized absorbance; binding signal [3]: 2.3 relative normalized absorbance
290 (dsDNA) DNA 1: AAAAAATGTCTAGACTCGGACATTCGAAAA DNA 2: TTTTCGAATGTCCGAGTCTAGACATTTTTT | 1.52 relative normalized absorbance | 
334 (dsDNA) DNA 1: AAAAAATTCCGGCTTGACGCTGCATAAAAA DNA 2: TTTTTATGCAGCGTCAAGCCGGAATTTTTT | 1.43 relative normalized absorbance | 
32 (dsDNA) DNA 1: AAAAAACCTACGATGGTTCTGATCTTAAAA DNA 2: TTTTAAGATCAGAACCATCGTAGGTTTTTT | 1.8 relative normalized absorbance | 
234 (dsDNA) DNA 1: AAAAAAGGTCTGGACGATCACCGGGAAAAA DNA 2: TTTTTCCCGGTGATCGTCCAGACCTTTTTT | 1.7 relative normalized absorbance | 
305 (dsDNA) DNA 1: AAAAAACGCTTTCAGTTTTGATCTTAAAAA DNA 2: TTTTTAAGATCAAAACTGAAAGCGTTTTTT | 1.55 relative normalized absorbance | 
314 (dsDNA) DNA 1: AAAAAATTGGCACACATGATCTCGGGAAAA DNA 2: TTTTCCCGAGATCATGTGTGCCAATTTTTT | 1.5 relative normalized absorbance | 
246 (dsDNA) DNA 1: AAAAAACTGACCGTCAGCGCCCACGCAAAA DNA 2: TTTTGCGTGGGCGCTGACGGTCAGTTTTTT |  | binding signal [2]: 1.96 relative normalized absorbance; binding signal [3]: 2.09 relative normalized absorbance
130 (dsDNA) DNA 1: AAAAAACGCAACTCCGGATGTGGGGTAAAA DNA 2: TTTTACCCCACATCCGGAGTTGCGTTTTTT | 1.54 relative normalized absorbance | 
probe 38 version with palindromic TGATCA (dsDNA) DNA 1: AAAAAATTTATACTTGATCATGGCTTAAAA DNA 2: TTTTAAGCCATGATCAAGTATAAATTTTTT |  | binding result [4]: binds
204 (dsDNA) DNA 1: AAAAAAGGAAGTACTGACGATCTGGAAAAA DNA 2: TTTTTCCAGATCGTCAGTACTTCCTTTTTT | 1.52 relative normalized absorbance | 
160 (dsDNA) DNA 1: AAAAAACGGTCGCGATCGTTAATGATAAAA DNA 2: TTTTATCATTAACGATCGCGACCGTTTTTT | 1.47 relative normalized absorbance | binding signal [3]: 2.05 relative normalized absorbance
300 (dsDNA) DNA 1: AAAAAACTCGCGCTTGCATCTGTGCGAAAA DNA 2: TTTTCGCACAGATGCAAGCGCGAGTTTTTT | 1.45 relative normalized absorbance | 
238 (dsDNA) DNA 1: AAAAAATCGGGGATCCGGGCGGTTGCAAAA DNA 2: TTTTGCAACCGCCCGGATCCCCGATTTTTT | 1.69 relative normalized absorbance | 
201 (dsDNA) DNA 1: AAAAAAGATCTAGGCCTTGGGACTCAAAAA DNA 2: TTTTTGAGTCCCAAGGCCTAGATCTTTTTT | 1.81 relative normalized absorbance | 
282 (dsDNA) DNA 1: AAAAAACAGGCCGATTCCGATCCCGGAAAA DNA 2: TTTTCCGGGATCGGAATCGGCCTGTTTTTT | 1.83 relative normalized absorbance | 
15 (dsDNA) DNA 1: AAAAAAATCCGATCGATGCATATATAAAA DNA 2: TTTTATATATGCATCGATCGGATTTTTTT | 1.63 relative normalized absorbance | 
